Test in all cases: Catalytic efficiency with oligosaccharides, HPAEC (Man5B)
What all share (format): biochemical, Caldanaerobius polysaccharolyticus
What all share (conditions): other: Man5B 3 nM, oligosaccharide 30 μM, citrate buffer 50 mM, pH 5.5, 5 min, triplicate

Substrate in series [1]: OC[C@H]1O[C@@H](O[C@H]2[C@H](O)[C@@H](O)[C@H](O[C@H]3[C@H](O)[C@@H](O)[C@H](O[C@H]4[C@H](O)[C@@H](O)[C@H](O[C@H]5[C@H](O)[C@@H](O)C(O)O[C@@H]5CO)O[C@@H]4CO)O[C@@H]3CO)O[C@@H]2CO)[C@H](O)[C@@H](O)[C@@H]1O
The protocol: (§1) Cloning, expression, and purification of Man5A-TM1, Man5A-TM2 and Man5B. C. polysaccharolyticus was cultured in TYG medium and DNA was isolated from mid-log cultures and purified using the Qiagen DNeasy Blood and Tissue kit with an integrated RNase treatment step. The genome of C. polysaccharolyticus was partially sequenced by the W. M. Keck Biotechnology Center at the University of Illinois at Urbana-Champaign. A Newbler assembly was generated which is comprised of ½ plate of FLX PE 454 data and ½ plate of 8 kb paired-end GSFLX Titanium data using a Genome Sequencer instrument from 454 Life Sciences (Branford, Conn.). The partial genome sequence was uploaded onto the Rapid Annotation using Subsystem Technology (RAST) server (Aziz et al., BMC Genomics, 9:75, 2008). Auto-annotation of the C. polysaccharolyticus partial genome sequence identified ORF0760 as a gene predicted to encode a bifunctional β-D-mannanase/endoglucanase (Man5B). Man5A was previously identified in a recombinant phage library of C. polysaccharolyticus genomic DNA, which was screened for endoglucanase activity (Cann et al., J Bacteriol, 181:1643, 1999) and the full sequence of this gene was also identified in the partial genome sequence for C. polysaccharolyticus.
(§2) The DNA sequence corresponding to man5B was amplified by the PicoMaxx high fidelity PCR kit using genomic DNA as the template with the primer set Man5B-Forward and Man5B-Reverse (Table 1-1). The primers were engineered to incorporate a 5′-[…] (SEQ ID NO: 54) extension in Man5B-F and a 5′-[…] (SEQ ID NO: 55) extension in Man5B-R, which facilitated subsequent directional cloning. The resultant man5B amplicon was then digested with T4 DNA polymerase exonuclease activity, annealed with a similarly digested pET-46b vector and introduced into E. coli JM109 by electroporation. Man5A-TM1 was amplified using genomic DNA as template with primers Man5A-TM1-F and Man5A-TM1-R (Table 1-1). The primer sets for Man5A-TM1 and Man5A-TM2 were designed to include 5′-NdeI and 3′-XhoI restriction sites for subsequent directional cloning. The resulting amplicons were then cloned into the pGEM-T vector via TA-cloning and subcloned in-frame with the hexahistidine (His6) encoding sequence of a modified pET-28a expression vector via its NdeI-XhoI polylinker site. The truncated protein Man5A-TM2 originally named ManA-SLH-CBD was cloned as described in a previous study (Cann et al., J Bacteriol, 181:1643, 1999). Expression of each of the resulting gene constructs yielded fusion proteins containing an N-terminal polyhistidine tag sequence to facilitate affinity purification via metal chelate chromatography. The resulting plasmid constructs pET46-Man5B, pET28a-Man5A-TM1, and pET-28a-Man5A-TM2 were sequenced to confirm the integrity of the cloned genes (W. M. Keck Center for Comparative and Functional Genomics at the University of Illinois at Urbana-Champaign).
(§3) The plasmid constructs were then introduced into E. coli BL-21 CodonPlus (DE3) RIL competent cells by heat shock, and grown overnight in lysogeny broth (LB) agar medium supplemented with ampicillin (100 μg/mL) and chloramphenicol (50 μg/mL) at 37° C. After 12 h, single colonies were selected and used to inoculate fresh LB (10 mL) supplemented with the antibiotics above at the same concentrations, followed by culturing with aeration for 8 h at 37° C. […]

Substrate in series [2]: OC[C@H]1O[C@@H](O[C@H]2[C@H](O)[C@H](O)C(O)O[C@@H]2CO)[C@@H](O)[C@@H](O)[C@@H]1O
As to the method: as §1, §2, §3

Substrate in series [3]: OC[C@H]1O[C@@H](O[C@H]2[C@H](O)[C@H](O)[C@H](O[C@H]3[C@H](O)[C@H](O)[C@H](O[C@H]4[C@H](O)[C@H](O)[C@H](O[C@H]5[C@H](O)[C@H](O)C(O)O[C@@H]5CO)O[C@@H]4CO)O[C@@H]3CO)O[C@@H]2CO)[C@@H](O)[C@@H](O)[C@@H]1O
As to the method:
as §1, §2, §3

Substrate in series [4]: OC[C@H]1O[C@H](OC[C@H]2OC(O)[C@@H](O)[C@@H](O)[C@@H]2O[C@@H]2O[C@H](CO)[C@@H](O)[C@H](O)[C@@H]2O)[C@H](O)[C@@H](O)[C@H]1O
As to the method:
as §1, §2, §3

Substrate in series [5]: OC[C@H]1O[C@H](OC[C@H]2OC(O)[C@@H](O)[C@@H](O)[C@@H]2O[C@@H]2O[C@H](CO)[C@@H](O[C@@H]3O[C@H](CO)[C@@H](O)[C@H](O)[C@@H]3O)[C@H](O)[C@@H]2O)[C@H](O)[C@@H](O)[C@H]1O
The protocol: as §1, §2, §3

Data on one protein can be found in US8357518B2, “Thermostable enzymes for the hydrolysis of mannan-containing polysaccharides” (The Board of Trustees of the University of Illinois, priority 2010, dated 2013).

B1: Caldanaerobius polysaccharolyticus endo-β-mannanase Man5B, wild type, SEQ ID NO: 31 (Caldanaerobius polysaccharolyticus) (protein)
chain: MKKYGFNFQWMYVWEEGREPEPPDKKALDFLAETGFNFVRIPVDYRFWTRNFDYFNPDKKVFEYIDLYLRECSARNIHMCLNLHRAPGYCINRNDIERDNLWLDKRAQDGFVYQWELFAKRYKGVSSKFLSFDLVNEPPNIGQYGLTRENHASLIIRTVEAIRKIDPDREIVIDGLGGGNIAMPELAHLGVVHSGRGYQPMALTHYQASWWDGHKGLPEPYYPDLLWQGKVWNKDTLREYYKPWRDLQQKGVNVHIGEFGCFNKTSNDVAIRWFEDVLSLYKEFEWGYSLWNFKGPFGIVEHGRPGAKYEYYRGFKVDRELLDLLVENRV
A word on the kcat/Km: it is the turnover number divided by the Michaelis constant. On to B1, for which the kcat/Km is 17000 ± 3000 M⁻¹ s⁻¹ in series [1]; 230 ± 30 M⁻¹ s⁻¹ in series [2]; “(2.2 ± 0.3) × 10^2 mM^−1 s^−1” in series [3]; 1500 ± 200 M⁻¹ s⁻¹ in series [4]; 30000 ± 7000 M⁻¹ s⁻¹ in series [5].
